Measurements reported in PMC7162832, “An unusual metal-bound 4-fluorothreonine transaldolase from Streptomyces sp. MA37 catalyses promiscuous transaldol reactions” (Applied Microbiology and Biotechnology, 2020).

Legend:
[1] = target: T1, FTaseMA (Streptomyces sp. MA37, UniProt W0W903); assay: DNPH derivatisation and HPLC; format: biochemical; design: gene flFT1; full-length (SHMT-like S domain plus aldolase-like A domain), N-His6, from MA37 genomic DNA in pGM1190 (pMBC001), expressed in Streptomyces lividans 66; dimer
[2] = target: 4-fluorothreonine transaldolase from Streptomyces sp. MA37 (Streptomyces sp. MA37) (UniProt W0W999); assay: SEC; ENrich High-Resolution Size Exclusion Column (Bio-Rad, 25 mL), isocratic elution; oligomeric state estimated from the retention time
[3] = target: T1, FTaseMA; assay: biochemical; design: gene flFT1
Description: acetaldehyde release, DNPH derivatisation and HPLC on FTaseMA

[4] = system: O=CCCl; assay: purified protein; conditions: L-threonine 5 mM, PLP 0.1 mM, Tris-HCl pH 7.5
[5] = system: CC(C)C=O; assay: purified protein; conditions: L-threonine 5 mM, PLP 0.1 mM, Tris-HCl pH 7.5
[6] = system: O=CCc1ccccc1; assay: purified protein; conditions: L-threonine 5 mM, PLP 0.1 mM, Tris-HCl pH 7.5
[7] = system: O=CCF; assay: purified protein; conditions: apparent, FAd 0.12-2.4 mM, L-threonine 20 mM (methods: 0.5-20 mM aldehyde, 5 mM L-Thr), PLP 0.1 mM, Tris-HCl pH 7.5

In the case of `CCC=O` [compound 11, propanal], the Km [1] is reported as 1450 ± 179 µM.

“4-fluorothreonine transaldolase from Streptomyces sp. MA37 (from UniProt W0W999 1-299) (enzyme)” showed a stoichiometry N [2] of 2.

Molecule `C[C@H](O)[C@H](N)C(=O)O` [compound 19, L-allo-threonine] has a Km [3] of 1180 ± 6 µM.

Molecule `O=CCO` [compound 9, glycolaldehyde] has a Km [1] of 357 ± 10 µM.

FTaseMA (Streptomyces sp. MA37) showed a Km [4] of 1350 ± 1 µM, a kcat [4] of 0.0238 s⁻¹ and a kcat/Km [4] of 17.6 M⁻¹ s⁻¹. It also gave a Km [5] of 535 ± 78 µM, a kcat [5] of 0.0135 s⁻¹ and a kcat/Km [5] of 25.4 M⁻¹ s⁻¹. The Km [6] was 358 ± 6 µM, the kcat [6] was 0.00975 s⁻¹ and the kcat/Km [6] was 27.2 M⁻¹ s⁻¹. The Km [7] was 241 ± 2 µM, the kcat [7] was 0.03 s⁻¹ and the kcat/Km [7] was 125 M⁻¹ s⁻¹.

Molecule `C[C@@H](O)[C@H](N)C(=O)O` [compound 6, L-threonine] has a Km [3] of 1180 ± 7 µM.
